From article PMC10197057 (Microbial Cell Factories, 2023)

Biological target: T1, lysozyme from chicken egg white (Gallus gallus, UniProt P00698)
T1 construct: lysozyme from chicken egg white (Sigma-Aldrich L4919); source: bought: Sigma-Aldrich (L4919)
Assay: BLI; BLItz system; nanobody (100 mg/L) loaded via His-tag on Anti-Penta-HIS (HIS1K) sensor; dilution series of antigen in solution; association 180 s, dissociation 300 s; sensor hydrated in PBS-T (0.1% Tween-20); reference without antigen; global fitting
Details: both partners purified

T1 sequence (P00698 19-147): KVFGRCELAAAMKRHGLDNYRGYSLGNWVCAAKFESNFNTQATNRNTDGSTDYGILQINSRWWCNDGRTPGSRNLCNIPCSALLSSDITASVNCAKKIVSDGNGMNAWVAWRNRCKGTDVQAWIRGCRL

- Kd: 1.5 nM
B1: monovalent antilysozyme nanobody 1ZVH (VHH)
VHH: DVQLVESGGGSVQAGGSLRLSCAASGYIASINYLGWFRQAPGKEREGVAAVSPAGGTPYYADSVKGRFTVSLDNAENTVYLQMNSLKPEDTALYYCAAARQGWYIPLNSYGYNYWGQGTQVTVSS
notes: anti-lysozyme camelid VHH; also called anti-lysozyme VHH; not shown: CBH2 secretory signal, CBD-carrier polypeptide and KEX2 linker (RDKR), N-terminal, cleaved; His6, C-terminal, kept
